# Experimental data: PMC6004067 (Genes & Development, 2018)
# Numbering of substitutions follows the chain as printed. Names and notes keep the numbering of the source.
# B1: TFIIB, full-length human, Flag- and His-tagged (natural protein, UniProt Q00403 1-316, looked up)
# chain: MASTSRLDALPRVTCPNHPDAILVEDYRAGDMICPECGLVVGDRVIDVGSEWRTFSNDKATKDPSRVGDSQNPLLSDGDLSTMIGKGTGAASFDEFGNSKYQNRRTMSSSDRAMMNAFKEITTMADRINLPRNIVDRTNNLFKQVYEQKSLKGRANDAIASACLYIACRQEGVPRTFKEICAVSRISKKEIGRCFKLILKALETSVDLITTGDFMSRFCSNLCLPKQVQMAATHIARKAVELDLVPGRSPISVAAAAIYMASQASAEKRTQKEIGDIAGVADVTIRQSYRLIYPRAPDLFPTDFKFDTPVDKLPQL
# notes: human TFIIB, full length; also called Flag-tagged TFIIB; wild-type TFIIB; source: E. coli BL21 (DE3), purified (Ni-NTA)
# B2: TFIIB R169E, Flag-tagged (natural protein, human, UniProt Q00403 1-316, looked up)
# chain: B1 chain with R169E
# notes: human TFIIB with a single R169E substitution; Probably made as the full-length parent
# B3: TFIIB R169E/K188E, Flag-tagged (natural protein, human, UniProt Q00403 1-316, looked up)
# chain: B1 chain with R169E, K188E
# notes: human TFIIB with the double R169E/K188E substitution; Probably made as the full-length parent; also called double substitution
# B4: GST-TFIIB (natural protein, human, UniProt Q00403 1-316, looked up)
# chain: B1 chain
# notes: TFIIB fused to GST
# What was measured:
# Settings in all cases: both partners purified
# [1] = target: T1, GST-TBP, GST-tagged full-length human TBP (human, UniProt P20226 1-339); assay: pull-down; GST pull-down: GST-TBP, GST-TFIIB or TBP fragments on glutathione beads; analytes in buffer B2 (150 mM NaCl), 1 h at 4°C, four washes, Western blot
# T1 construct: human TBP, full length
# [2] = target: T2, TATA-box-binding protein (TBP), full-length human (human, UniProt P20226 1-339); assay: pull-down; Flag-tagged TFIIB or its mutants immobilized on Flag beads; TBP or SNAPc as analyte; buffer B2, 1 h at 4°C, four washes, Western blot
# T2 construct: human TBP, full length; Two preparations of free TBP are described (Flag/His double-tagged; GST-TBP cleaved with thrombin); also called wild-type TBP; source: E. coli BL21 (DE3), purified (Ni-NTA as Flag- and His-tagged protein, or cut with thrombin from GST-TBP)
# [3] = target: T2, TATA-box-binding protein (TBP), …; assay: pull-down; GST pull-down: GST-TBP, GST-TFIIB or TBP fragments on glutathione beads; analytes in buffer B2 (150 mM NaCl), 1 h at 4°C, four washes, Western blot
# T2 sequence (P20226 whole entry): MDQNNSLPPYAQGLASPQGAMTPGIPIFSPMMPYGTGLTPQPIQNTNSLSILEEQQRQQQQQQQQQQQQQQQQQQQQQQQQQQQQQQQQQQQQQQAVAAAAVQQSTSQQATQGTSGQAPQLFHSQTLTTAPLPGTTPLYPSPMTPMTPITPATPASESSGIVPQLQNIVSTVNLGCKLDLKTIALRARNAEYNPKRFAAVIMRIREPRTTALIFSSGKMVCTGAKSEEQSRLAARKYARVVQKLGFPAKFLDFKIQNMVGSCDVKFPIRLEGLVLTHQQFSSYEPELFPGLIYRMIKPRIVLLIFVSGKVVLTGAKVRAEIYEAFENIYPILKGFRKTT
# T1 sequence (P20226 whole entry, the tested form may be a part): as the sequence (P20226 whole entry) above
Binder,binding result [1],binding result [2],binding result [3]
B1,binds,binds,
B2,,binds,
B3,,binds,
B4,,,binds
